These results are taken from US11692025 (UNIVERSITY COURT OF THE UNIVERSITY OF ABERDEEN, dated 2023).

Substitutions are numbered along the chain they refer to.

The target of assay [1] is T1, hen egg lysozyme (hen, UniProt P00698 19-147).
T1 construct: also called HEL
In words: Biacore, monomeric VNAR.

For assay [2], the target named is T2, human serum albumin (human, UniProt P02768 25-609).
T2 construct: also called HSA; HAS
The assay can be described thus: BIAcore.

Assay [3] addresses T3, mouse serum albumin (mouse, UniProt P07724 25-608).
T3 construct: also called MSA
In words: BIAcore. In general terms: SPR reads the build-up and loss of mass on a sensor chip optically.

Assay [4] concerns the target T2, human serum albumin. In words: phage and periprep ELISA on HSA; purified 6xHis-tagged VNAR. As to the method: The resultant mutational phage display libraries were rescued and selected twice using Nunc Maxisorp immunotubes. Following each pan, two 96-well plates of individual colonies were picked with a QPix2 XT (Genetix, San Jose, Calif., USA). Binding as monoclonal phage and periprep was evaluated by ELISA. All samples were processed with a Perkin Elmer MiniTrak robotic liquid handling system (Waltham, Mass., USA).

For assay [5], the target named is T4, rat serum albumin (rat, UniProt P02770 25-608).
T4 construct: also called RSA
The assay can be described thus: BIAcore, mean ± SE.

In assay [6] the target is T5, CSA (monkey, UniProt A2V9Z4 25-608, limits assumed).
T5 construct: also called monkey albumin
In words: BIAcore, mean ± SE.

Assay [7] addresses T2, human serum albumin. The assay can be described thus: BIAcore, mean ± SE.
In assay [8] the target is T3, mouse serum albumin. The assay can be described thus: BIAcore, mean ± SE.
The target of assay [9] is T1, hen egg lysozyme. The assay can be described thus: BIAcore.
For assay [10], the target named is T4, rat serum albumin. In words: BIAcore, pH 7.4, monomeric 6xHis-tagged VNAR.
Assay [11] has as its target T2, human serum albumin. The assay can be described thus: BIAcore, pH 7.4, monomeric 6xHis-tagged VNAR.
In assay [12] the target is T3, mouse serum albumin. The assay can be described thus: BIAcore, pH 7.4, monomeric 6xHis-tagged VNAR.
Assay [13] has as its target T4, rat serum albumin. In words: BIAcore, pH 6.0, monomeric 6xHis-tagged VNAR.
For assay [14], the target named is T2, human serum albumin. In words: BIAcore, pH 6.0, monomeric 6xHis-tagged VNAR.
For assay [15], the target named is T3, mouse serum albumin. The assay can be described thus: BIAcore, pH 6.0, monomeric 6xHis-tagged VNAR.

T4 sequence (P02770 25-608 limits assumed): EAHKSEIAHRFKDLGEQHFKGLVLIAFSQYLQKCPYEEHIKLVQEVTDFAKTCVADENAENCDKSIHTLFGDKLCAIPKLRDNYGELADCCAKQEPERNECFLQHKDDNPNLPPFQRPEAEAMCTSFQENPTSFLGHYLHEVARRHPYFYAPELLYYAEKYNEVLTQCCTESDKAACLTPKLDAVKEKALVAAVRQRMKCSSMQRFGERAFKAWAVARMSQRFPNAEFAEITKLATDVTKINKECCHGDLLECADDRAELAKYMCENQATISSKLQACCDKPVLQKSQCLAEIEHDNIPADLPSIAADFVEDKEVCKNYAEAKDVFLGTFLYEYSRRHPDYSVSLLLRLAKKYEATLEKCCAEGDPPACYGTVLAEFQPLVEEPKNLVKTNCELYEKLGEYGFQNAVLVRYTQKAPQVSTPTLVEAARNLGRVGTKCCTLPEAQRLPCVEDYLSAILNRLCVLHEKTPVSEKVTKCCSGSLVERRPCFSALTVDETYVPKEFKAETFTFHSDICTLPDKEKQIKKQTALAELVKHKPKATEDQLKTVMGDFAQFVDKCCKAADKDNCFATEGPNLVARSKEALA
T3 sequence (P07724 25-608 limits assumed): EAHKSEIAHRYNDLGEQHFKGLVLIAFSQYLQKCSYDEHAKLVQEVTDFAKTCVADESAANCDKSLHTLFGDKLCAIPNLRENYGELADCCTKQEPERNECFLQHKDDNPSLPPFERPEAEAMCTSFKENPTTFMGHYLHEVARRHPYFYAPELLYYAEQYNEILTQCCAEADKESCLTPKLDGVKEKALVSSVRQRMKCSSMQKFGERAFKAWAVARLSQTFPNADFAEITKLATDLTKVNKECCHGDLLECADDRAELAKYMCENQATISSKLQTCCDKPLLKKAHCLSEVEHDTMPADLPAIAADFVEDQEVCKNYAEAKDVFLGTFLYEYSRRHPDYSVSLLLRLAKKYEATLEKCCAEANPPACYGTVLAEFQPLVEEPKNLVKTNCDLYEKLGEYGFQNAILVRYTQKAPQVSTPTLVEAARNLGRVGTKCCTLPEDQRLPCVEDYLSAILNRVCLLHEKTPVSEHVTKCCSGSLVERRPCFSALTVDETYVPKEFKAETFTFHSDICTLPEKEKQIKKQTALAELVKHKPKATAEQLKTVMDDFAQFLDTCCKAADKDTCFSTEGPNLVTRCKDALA
T1 sequence (P00698 19-147): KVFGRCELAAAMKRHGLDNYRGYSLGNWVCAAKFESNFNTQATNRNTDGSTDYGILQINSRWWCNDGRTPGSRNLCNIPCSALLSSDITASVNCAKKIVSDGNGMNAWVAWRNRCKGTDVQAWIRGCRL
T5 sequence (A2V9Z4 25-608 limits assumed): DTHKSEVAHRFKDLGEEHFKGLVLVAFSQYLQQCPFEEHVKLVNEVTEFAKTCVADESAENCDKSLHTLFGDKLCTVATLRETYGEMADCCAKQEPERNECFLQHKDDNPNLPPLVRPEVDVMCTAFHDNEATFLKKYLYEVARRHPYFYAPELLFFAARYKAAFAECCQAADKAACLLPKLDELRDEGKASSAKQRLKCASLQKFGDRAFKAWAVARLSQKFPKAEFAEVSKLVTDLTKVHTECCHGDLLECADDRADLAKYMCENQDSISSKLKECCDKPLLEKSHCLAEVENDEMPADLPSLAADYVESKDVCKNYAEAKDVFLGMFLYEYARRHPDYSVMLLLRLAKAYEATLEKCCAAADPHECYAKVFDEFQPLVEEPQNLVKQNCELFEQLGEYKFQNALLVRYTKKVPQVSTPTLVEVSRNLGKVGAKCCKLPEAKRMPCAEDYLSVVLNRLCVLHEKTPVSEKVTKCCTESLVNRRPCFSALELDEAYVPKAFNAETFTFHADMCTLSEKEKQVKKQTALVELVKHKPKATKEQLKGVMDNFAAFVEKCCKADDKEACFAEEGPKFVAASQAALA

B1: 5A7IVabc-AAA-6xHis (VNAR)
VNAR: ARVDQSPSSLSASVGDRVTITCVLRDASYALGSTCWYQQKPGKAPKSISKGGRYSESVNSGSKSFTLTISSLQPEDFATYYCGLGVAGGYCDYALCSSRYAECGQGTKVEIKA
notes: Humanized 5A7 VNAR, monomeric; also called humanized 5A7-IVabc
With B1, in [1], the equilibrium dissociation constant (Kd) was found to be 14.8 nM, the koff came to 0.173 s⁻¹ and the kon turned out to be 1.17e+07 M⁻¹ s⁻¹.

B2: 5A7-AAA-6xHis (VNAR)
VNAR: ARVDQTPRSVTKETGESLTINCVLRDASYALGSTCWYRKKSGEGNEESISKGGRYVETVNSGSKSFSLRINDLTVEDGGTYRCGLGVAGGYCDYALCSSRYAECGDGTAVTVNA
notes: Type I shark VNAR against hen egg lysozyme, monomeric; also called parental 5A7; anti-HEL 5A7
In the case of B2, the binding result in [2] and in [3] was “no binding” in each case.

B3: BD12 (VNAR)
VNAR: TRVDQSPSSLSASVGDRVTITCVLTDTSYPLYSTYWYRKNPGSSNKEQISISGRYSESVNKGTNSFTLTISSLQPEDFATYYCRAMGTNIWTGDGAGTKVEIK
notes: Variant of huE06 v1.10 from error-prone PCR
Regarding B3, the binding result in assay [4] is “binds”.

B4: BE4 (VNAR)
VNAR: B3 VNAR with P30S, N64K
notes: as for B3
For B4, the binding result in assay [4] is “binds”.

B5: E06-AAA-6xHis (VNAR)
VNAR: TRVDQTPRTATRETGESLTINCVLTDTSYPLYSTYWYRKNPGSSNKEQISISGRYVESVNKGTKSFSLRIKDLTVADSATYICRAMGTNIWTGDGAGTVLTVNA
notes: Shark VNAR single domain against serum albumin; also called wild-type E06; monomeric 6xHis-tagged E06
B5: the equilibrium dissociation constant (Kd) was found to be 1.34 nM in assay [5]; 0.219 nM in [6]; 0.189 nM in [7]; 0.74 nM in assay [8]; 1.45 nM in assay [10]; 0.19 nM in assay [11]. For the same molecule, the equilibrium dissociation constant (Kd) in [12] was 0.83 nM; in assay [13], 0.34 nM; in assay [14], 0.14 nM; in assay [15], 0.33 nM. The koff was 0.00301 s⁻¹ in [5]; 0.000584 s⁻¹ in assay [6]; 0.000583 s⁻¹ in [7]; 0.00171 s⁻¹ in assay [8]; 0.0032 s⁻¹ in assay [10]; 0.000655 s⁻¹ in assay [11]. Also, the koff came out at 0.0018 s⁻¹ in assay [12], 0.00433 s⁻¹ in assay [13], 0.00159 s⁻¹ in assay [14] and 0.00323 s⁻¹ in assay [15]. The kon in [5] was found to be 2.24e+06 M⁻¹ s⁻¹; in [6], 2.68e+06 M⁻¹ s⁻¹; in assay [7] it was 3.09e+06 M⁻¹ s⁻¹; in assay [8] it was 2.32e+06 M⁻¹ s⁻¹; in assay [10], 2.21e+06 M⁻¹ s⁻¹; in [11] it was 3.48e+06 M⁻¹ s⁻¹. The kon was found to be 2.18e+06 M⁻¹ s⁻¹ in [12], 1.26e+07 M⁻¹ s⁻¹ in assay [13], 1.12e+07 M⁻¹ s⁻¹ in [14] and 9.85e+06 M⁻¹ s⁻¹ in assay [15]. Besides, the binding result in assay [9] is “no binding”.

B6: 2V-E06 (VNAR, part only; not given: naive VNAR 2V and linker, not shown: small tags and cut ends)
chain, part: TRVDQTPRTATRETGESLTINCVLTDTSYPLYSTYWYRKNPGSSNKEQISISGRYVESVNKGTKSFSLRIKDLTVADSATYICRAMGTNIWTGDGAGTVLTVNAAAHHHHHH
For the molecule B6, the Kd was determined as 5.95 nM in [5], 0.91 nM in assay [6], 0.721 nM in assay [7] and 2.49 nM in assay [8]. The koff in assay [5] is 0.00344 s⁻¹; in assay [6], 0.000682 s⁻¹; in [7] it was 0.000641 s⁻¹; in assay [8], 0.00214 s⁻¹. The kon in assay [5] was determined as 623000 M⁻¹ s⁻¹; in [6], 820000 M⁻¹ s⁻¹; in assay [7], 953000 M⁻¹ s⁻¹; in [8], 862000 M⁻¹ s⁻¹.

One may read the Kd as the free concentration of one partner at which half of the binding sites on the other are occupied at equilibrium, for simple one-to-one binding. A lower Kd goes with higher affinity. As a reminder, the koff is a measure of how fast the partners let go of each other. The low end stands for a long-lived complex, the high end for a short-lived complex. By kon is commonly meant a measure of how fast the partners come together. A lower kon goes with slow association.
